Assay results reported in publication PMC8429728 (Nature Communications, 2021).

Biological target: T1, M1-linked tetra-ubiquitin (UniProt P0CG48 1-76; P0CG48 1-76; P0CG48 1-76; P0CG48 1-76, M1-linked)
T1 construct: ubiquitin, first of four head-to-tail repeats; ubiquitin, second repeat; ubiquitin, third repeat; ubiquitin, fourth repeat; also called M1-linked chains
Assay: pull-down; GST fusion held on glutathione agarose, incubated with 0.5 μg of an individual tetra-ubiquitin chain, 2 h at 4 °C; 150 mM NaCl, 50 mM Tris pH 7.5, 0.1% IGEPAL, 5 mM DTT, 0.25 mg/mL BSA; immunoblotted for GST and ubiquitin
Settings: both partners purified

binding result: binds
B1: GST-TNK1-UBA (domain or fragment, human, UniProt Q13470 585-666, looked up)
chain: LLSDPELQRKIMEVELSVHGVTHQECQTALGATGGDVVSAIRNLKVDQLFHLSSRSRADCWRILEHYQWDLSAASRYVLARP
notes: TNK1, human, amino acid 585 to 666 (UBA domain), in pGEX-6P-1; also called GST-tagged recombinant TNK1 UBA; source: E. coli BL21; held on glutathione agarose and washed (pull-down); lysate loaded on anti-GST biosensors (BLI); not shown: GST, N-terminal, kept
